Assay [1] concerns the target T1, H1 mini-HA (#4900) (Designed from influenza A virus …, stabilised). Briefly: ELISA. A general note: An ELISA detects its analyte on a solid surface through an enzyme-linked reagent.
In assay [2] the target is H1N1 A/Solomon Island/3/2006 HA (Influenza A virus A/Solomon …, UniProt A7Y8I1, strain). Briefly: BLI.
For assay [3], the target named is T1, H1 mini-HA (#4900). Briefly: BLI. Background: BLI is a label-free optical method that tracks binding on a fibre tip over time.

B1: 013–10 3F02 IgG K56N mutant (antibody, V domains shown)
VH: QVQLVESGGGVAQPGRSLRLSCAASGFTFSTYGMHWVRQAPGKGLEWVAVISYDGSNRYYAEILKDRFTISRDNSKNTVYLQMNSLRTEDTAVYFCAKEGRPLIVSGTHFFQFYYGMDVWGQGTTVTVSS
VL: DIQMTQSPSSLSASVGDRVTISCRASQSIGTYLNWYQQKPGKAPNLLIYGTSTLKSGVPSRFSGSGSGTDFTLTIGSLQPEDFATYFCQQSFSPPLTFGRGTRLEIK
On to B1, for which, in assay [1], the “fold weakening of binding affinity against WT” value stood at 10 fold.

B2: 310–18A5 (antibody, V domains shown)
VH: QVQLMQSGTEVKKPGSSVRVSCKASGSTFNSDAISWVRQAPGQGLEWMGGILGMFRTVNYAQRFQGRVTITADELMSTAYMELSGLRFEDTAVYYCARGDGYKPNFLRYWGQGTLITVSS
VL: TLSLSPGERATLSCRASQSVSSTSLAWYQQKFGQAPRLLIYGASNRATGIPDRFSGSGSGTDFTLTISRLEPEDFAVYYCQQYGNSLTFGGGTKVEIK
By Kd is commonly meant the free concentration of one partner at which half of the binding sites on the other are occupied at equilibrium, for simple one-to-one binding. The low end stands for tighter binding, the high end for weaker binding. Turning to B2, the Kd in assay [2] is 0.2 nM; in assay [3] it was 1 nM.

The values are drawn from publication PMC11464180 (Immunity, 2024).
